B1: Hairpin Ribozyme (parent)
chain: GUCCUCUUUCACGUGCGCGUGAAAGAGAGAAGUGAACCAGAGAAACACACGUUGUGGUAUAUUACCUGGUA

In this data set the parent is B1. The experiment in a line: self-cleavage, relative activity (ratio to wild type); higher = more cleavage; co-transcriptional.
Turning to GUCCUCGUUCACGUGCGCGUGAAAGAGACAAGUGAACCAGAGAAACACACGUUGUGGUAUAUUACCUGGUA, the self-cleavage stood at 0.134.

For the variant GUCCUCGUUCACGUGCGCGUGAAAGAGAAAAGUGAACCAGAGAAACACACGUUGUGGUAUAUUACCUGGUA, the self-cleavage stood at 0.22.

GUCCUCGUUCACGUGCGCGUGAAAGAGAGAAGUGAACCAGAGAAACACACGUUGUGGAAUAUUACCUGGUA: the self-cleavage came out at 0.655.

Turning to GUCCUCGUUCACGUGCGCGUGAAAGAGAGAAGUGAACCAGAGAAACACACGUUGUGGGAUAUUACCUGGUA, the self-cleavage turned out to be 0.645.

Consider GUCCUCGUUCACGUGCGCGUGAAAGAGAGAAUUGAACCAGAGAAACACACGUUGUGGUAUAUUACCUGGUA, for which the self-cleavage was determined as 0.135.

Turning to GUCCUCGUUCACGUGCGCGUGAAAGAGAGAAAUGAACCAGAGAAACACACGUUGUGGUAUAUUACCUGGUA, the self-cleavage was found to be 0.173.

On to GUCCUCGUUCACGUGCGCUUGAAAGAGAGAAGUGAACCAGAGAAACACACGUUGUGGUAUAUUACCUGGUA, for which the self-cleavage was found to be 0.414.

GUCCUCGUUCACGUGCGCGUGAAAGAGAGAAGUGAACCAGAGAAACACACGUUGUGGUAUAUAACCUGGUA: the self-cleavage is 0.179.

On to GUCCUCGUUCACGUGCGCGUGAAAGAGAGAAGUGAACCAGAGAAACACACGUUGUGGUAUAUGACCUGGUA, for which the self-cleavage amounted to 0.145.

GUCCUCUAUCACGUGCGCGUGAAAGAGAGAAGUGAACCUGAGAAACACACGUUGUGGUAUAUUACCUGGUA: the self-cleavage came out at 0.334.

On to GUCCUCUAUCACGUGCGCGUGAAAGAGAGAAGUGAACCGGAGAAACACACGUUGUGGUAUAUUACCUGGUA, for which the self-cleavage was 0.279.

In the case of GUCCUCGUUCACGUGCGCGUGAAAGAGAGGAGUGAACCAGAGAAACACACGUUGUGGUAUAUUACCUGGUA, the self-cleavage was found to be 0.081.

Turning to GUCCUCUAUCACGUGCGCGUGAAAGAGAGCAGUGAACCAGAGAAACACACGUUGUGGUAUAUUACCUGGUA, the self-cleavage turned out to be 0.172.

Turning to GUCCUCUAUCCCGUGCGCGUGAAAGAGAGAAGUGAACCAGAGAAACACACGUUGUGGUAUAUUACCUGGUA, the self-cleavage was 0.393.

In the case of GUCCUCUAUCACGUGCGCGUGAAAGAGAGAAGUGAACCAGAGAAACACACGUUGUGGUAUCUUACCUGGUA, the self-cleavage came to 0.165.

Take GUCCUCGUUCACGUGCGCGUGAAAGAGAGAAGUGAACCAGAGAAACACACGCUGUGGUAUAUUACCUGGUA: the self-cleavage worked out at 0.961.

As to GUCCUCGUUCACGUGCGCGUGAAAGAGAGAAGUGAACCAGAGAAACACACGAUGUGGUAUAUUACCUGGUA, the self-cleavage stood at 0.734.

With GUCCUCUAUCACGUGCGCGUGAAAGAGAGAAGUGAACCAGAGAAACUCACGUUGUGGUAUAUUACCUGGUA, the self-cleavage is 0.16.

For the variant GUCCUCUAUCACGUGCGCGUGAAAGAGAGAAGUGAACCAGAGAAACCCACGUUGUGGUAUAUUACCUGGUA, the self-cleavage was found to be 0.295.

Turning to GUCCUCGUUCACGUGCGCGAGAAAGAGAGAAGUGAACCAGAGAAACACACGUUGUGGUAUAUUACCUGGUA, the self-cleavage came out at 0.294.

Take GUCCUCUAUCACGUGCGCGUGAAAGAGAGAAGUGAACCAGAGAAACACACGUUGUGGUAUAUUACCUGGUA: the self-cleavage was found to be 0.745.

With GUCCUCGUUCACGUGCGCGUGAAAGUGAGAAGUGAACCAGAGAAACACACGUUGUGGUAUAUUACCUGGUA, the self-cleavage was 0.384.

On to GUCCUCGUUCACGUGCGCGUGAAAGAGAGAAGUGAACCAGAGAAACACACGUUGUGGUAUAUUGCCUGGUA, for which the self-cleavage was 0.461.

As for GUCCUCGUUCACGUGCGCGUGAAAGAGAGACGUGAACCAGAGAAACACACGUUGUGGUAUAUUACCUGGUA, the self-cleavage turned out to be 0.11.

Consider GUCCUCGUUCACGUGCGCGUGAAAGAGAGAAGUGAACCAGAGAAACACACGUUGUGGUAUAUUAUCUGGUA, for which the self-cleavage is 0.369.

With GUCCUCGUUCACGUGCGCGUGAAAGAGCGAAGUGAACCAGAGAAACACACGUUGUGGUAUAUUACCUGGUA, the self-cleavage is 0.329.

GUCCUCGUUCACGUGCGCGUGAAAGAGGGAAGUGAACCAGAGAAACACACGUUGUGGUAUAUUACCUGGUA: the self-cleavage was determined as 1.06.

GUCCUCGUUCACGUGCGCGUGAAAGAGAGAAGUGAACCAGAGAAACACUCGUUGUGGUAUAUUACCUGGUA: the self-cleavage was found to be 0.15.

As for GUCCUCGUUCACGUGCGCGUGAAAGAGAGAAGUGAACCAGAGAAACACCCGUUGUGGUAUAUUACCUGGUA, the self-cleavage worked out at 0.141.

As for GUCCUCGUUCACGUGCGCGUGAAAGAGAGAAGUGAACCAGAGAAAUACACGUUGUGGUAUAUUACCUGGUA, the self-cleavage stood at 0.129.

With GUCCUCGUUCACGUGCGCGUGAAAGAGAGAAGUGAACCAGAGAAACACACGUUGUGGUAGAUUACCUGGUA, the self-cleavage is 0.484.

As to GUCCUCGUUCAGGUGCGCGUGAAAGAGAGAAGUGAACCAGAGAAACACACGUUGUGGUAUAUUACCUGGUA, the self-cleavage stood at 0.658.

Turning to GUCCUCGUUCACGUGCGCGUGAAAGAGAGAAGUGAACAAGAGAAACACACGUUGUGGUAUAUUACCUGGUA, the self-cleavage was determined as 0.129.

As for GUCCUCGUUCACGUGCGCGUGAAAGAGAGAAGUGAACGAGAGAAACACACGUUGUGGUAUAUUACCUGGUA, the self-cleavage was 0.0992.

With GUCCUCGUUCACGUGCGCGUGAUAGAGAGAAGUGAACCAGAGAAACACACGUUGUGGUAUAUUACCUGGUA, the self-cleavage came to 0.883.

Take GUCCUCGUUCACGUGCGCGUGCAAGAGAGAAGUGAACCAGAGAAACACACGUUGUGGUAUAUUACCUGGUA: the self-cleavage turned out to be 0.515.

Regarding GUCCUCGUUCACGUGCGCGUGGAAGAGAGAAGUGAACCAGAGAAACACACGUUGUGGUAUAUUACCUGGUA, the self-cleavage came to 0.908.

With GUCCUCGUUCACGUACGCGUGAAAGAGAGAAGUGAACCAGAGAAACACACGUUGUGGUAUAUUACCUGGUA, the self-cleavage stood at 0.736.

Turning to GUCCUCUAUCACGUGCGCGUGAAAGAGAGAAGUGCACCAGAGAAACACACGUUGUGGUAUAUUACCUGGUA, the self-cleavage came to 0.911.

In the case of GUCCUCGUUCACGUGCGCGUGAAAGAGAGAAGUGAACCAGAGAAACAUACGUUGUGGUAUAUUACCUGGUA, the self-cleavage was determined as 0.114.

For the variant GUCCUCGUUCACGUGCGCGUGAAAAAGAGAAGUGAACCAGAGAAACACACGUUGUGGUAUAUUACCUGGUA, the self-cleavage amounted to 0.316.

In the case of GUCCUCGUUCACGUGCGCGUGAAAGAGAGAAGUGAACCAGAGAAACACAGGUUGUGGUAUAUUACCUGGUA, the self-cleavage amounted to 0.143.

In the case of GUCCUCUAUCACGUGCGCGUGAAGGAGAGAAGUGAACCAGAGAAACACACGUUGUGGUAUAUUACCUGGUA, the self-cleavage was found to be 0.511.

Consider GUCCUCUAUCACGUGCGCGUGGAAGAGAGAAGUGAACCAGAGAAACACACGUUGUGGUAUAUUACCUGGUA, for which the self-cleavage came out at 0.644.

Consider GUCCUCGGUCACGUGCGCGUGAAAGAGAGAAGUGAACCAGAGAAACACACGUUGUGGUAUAUUACCUGGUA, for which the self-cleavage came out at 0.768.

On to GUCCUCGUUCACGUGCGCGUGAAAGAGAGAAGUGAAUCAGAGAAACACACGUUGUGGUAUAUUACCUGGUA, for which the self-cleavage came to 0.531.

On to GUCCUCGUUCACGUGCGCGUGAAAGAGAGAAGUGAAGCAGAGAAACACACGUUGUGGUAUAUUACCUGGUA, for which the self-cleavage came out at 0.239.

With GUCCUCGUUCACGUGCGCGUGAAAGAGAGAAGUAAACCAGAGAAACACACGUUGUGGUAUAUUACCUGGUA, the self-cleavage was determined as 0.984.

On to GUCCUCGUUCACGUGCGCGUGAAAGAGAGAAGUCAACCAGAGAAACACACGUUGUGGUAUAUUACCUGGUA, for which the self-cleavage was found to be 1.39.

As to GUCCUCGUUCACGUGCGCGUGAAAGAGAGAAGUGAACCAGAGCAACACACGUUGUGGUAUAUUACCUGGUA, the self-cleavage came out at 0.138.

As for GUCCUCGUUCACGUGCGCGUGAAAGAGAGAAGUGAACCAGAGAAACACACGUUGUGCUAUAUUACCUGGUA, the self-cleavage was determined as 0.206.

As for GUCCUCGUUCACGUGCGCGUGAAAGAGAGAAGUGAACCAGAGAAACACACGUUGUGGUAUAUUACCUGGUU, the self-cleavage was 0.746.

Take GUCCUCGUUCACGUGCGCGUGAAAGAGAGAAGUGAACCAGAGAAACACACGUUAUGGUAUAUUACCUGGUA: the self-cleavage was 0.642.

Take GUCCUCGUUCACGUGCGCGUGAAAGAGAGAAGUGAACCAGAGAAACACACGUUUUGGUAUAUUACCUGGUA: the self-cleavage was determined as 0.619.

Turning to GUCCUCGUUCACGUGCGCGUGAAAGAGAGAAGUGAACCAGAGAAACUCACGUUGUGGUAUAUUACCUGGUA, the self-cleavage was found to be 0.0788.

With GUCCUCGUUCACGUGCGCGUGAAAGAGAGAAGUGAACCAGAGAAACCCACGUUGUGGUAUAUUACCUGGUA, the self-cleavage came to 0.234.

GUCCUCGUUCACGUGCCCGUGAAAGAGAGAAGUGAACCAGAGAAACACACGUUGUGGUAUAUUACCUGGUA: the self-cleavage is 0.612.

On to GUCCUCGUUCACGUGCUCGUGAAAGAGAGAAGUGAACCAGAGAAACACACGUUGUGGUAUAUUACCUGGUA, for which the self-cleavage turned out to be 1.04.

As for GUCCUCGUUCACGUGCACGUGAAAGAGAGAAGUGAACCAGAGAAACACACGUUGUGGUAUAUUACCUGGUA, the self-cleavage worked out at 0.849.

GUCCUCUAUCACGUGCGCGUGAAAGAGAGAAGUGAACCAGAGAAACACACGUUGUGGUUUAUUACCUGGUA: the self-cleavage came to 0.165.

As for GUCCUCGUUCACGUGCGCGUGAAAGAGAGAAGUGAACCAGAGAAACACACGUUGUGGUAUAUUACCUUGUA, the self-cleavage is 0.269.

With GUCCUCGUUCACGUGCGCGUGAAAGAGAGAAGUGAACCAGAGAAACACACGUUGUGGUAUAUUACUUGGUA, the self-cleavage worked out at 0.355.

In the case of GUCCUCUAUCACGUGCGCGUGAAAGAGAGAAGUGAACCAGAGUAACACACGUUGUGGUAUAUUACCUGGUA, the self-cleavage worked out at 0.106.

As for GUCCUCGUUCACGUGCGCGUGAAAGAGAGAAGUGAACCAGAGAUACACACGUUGUGGUAUAUUACCUGGUA, the self-cleavage was 0.139.

Turning to GUCCUCGUUCACGUGCGCGUGAAAGAGAGAAGUGAACCAGAGAAACACACGUUGUGGUAUUUUACCUGGUA, the self-cleavage turned out to be 0.203.

In the case of GUCCUCGUUCACGUGCGCGUGAAAGAGAGAAGUGAACCAGAGAAACACACUUUGUGGUAUAUUACCUGGUA, the self-cleavage amounted to 0.844.

Regarding GUCCUCGUUGACGUGCGCGUGAAAGAGAGAAGUGAACCAGAGAAACACACGUUGUGGUAUAUUACCUGGUA, the self-cleavage came to 0.643.

For the variant GUCCUCGUUAACGUGCGCGUGAAAGAGAGAAGUGAACCAGAGAAACACACGUUGUGGUAUAUUACCUGGUA, the self-cleavage came out at 0.765.

Consider GUCCUCGUUUACGUGCGCGUGAAAGAGAGAAGUGAACCAGAGAAACACACGUUGUGGUAUAUUACCUGGUA, for which the self-cleavage worked out at 0.64.

As to GUCCUCGUCCACGUGCGCGUGAAAGAGAGAAGUGAACCAGAGAAACACACGUUGUGGUAUAUUACCUGGUA, the self-cleavage is 0.66.

Consider GUCCUCGUUCACGUGCGCGUGAAAGAGAGAAGUGAACCAGAGAAUCACACGUUGUGGUAUAUUACCUGGUA, for which the self-cleavage amounted to 0.2.

For GUCCUCUAUCACGUGCGCGUGAAAGAGAGAAGUGAACCAGGGAAACACACGUUGUGGUAUAUUACCUGGUA, the self-cleavage is 0.615.

As to GUCCUCGUUCACGUGAGCGUGAAAGAGAGAAGUGAACCAGAGAAACACACGUUGUGGUAUAUUACCUGGUA, the self-cleavage is 0.929.

As for GUCCUCGUUCACCUGCGCGUGAAAGAGAGAAGUGAACCAGAGAAACACACGUUGUGGUAUAUUACCUGGUA, the self-cleavage was 0.618.

With GUCCUCGUUCACGUGCGCGUGAAGGAGAGAAGUGAACCAGAGAAACACACGUUGUGGUAUAUUACCUGGUA, the self-cleavage was 0.697.

GUCCUCGUUCACGUGCGCGUGAAAGAGAGAAGUGAACCAGAUAAACACACGUUGUGGUAUAUUACCUGGUA: the self-cleavage worked out at 0.299.

(Values after the RNAGym collection of RNA variant scans (doi:10.7554/elife.80360).)
